Laboratory results from PMC7334205.
Each block holds one substance with its values, some of them ahead of it.

Key:
Assay in all cases: bimolecular fluorescence complementation (BiFC), quantitative imaging of nuclear Venus fluorescence in cells
VN-Impα2 = VN-Impα2 (UniProt P52293); conditions: 18 h post-transfection, mean ± SEM, three independent experiments, parent: est. 1.0, read off a plot
VN-CIC = VN-CIC (UniProt Q96RK0); conditions: 18 h post-transfection; n = 258 (85Q) and 201 (mVS) nuclei; mean ± SEM, three independent experiments; parent: est. 1.0; read off a plot
VC-ataxin-1[85Q] = VC-ataxin-1[85Q] (UniProt P54253); conditions: 18 h post-transfection; n = 155 (wild-type Impα2) and 131 (mDE) nuclei; mean ± SEM, three independent experiments; parent: est. 1.0; read off a plot

Sequence of UniProt Q96RK0 (Q96RK0 whole entry): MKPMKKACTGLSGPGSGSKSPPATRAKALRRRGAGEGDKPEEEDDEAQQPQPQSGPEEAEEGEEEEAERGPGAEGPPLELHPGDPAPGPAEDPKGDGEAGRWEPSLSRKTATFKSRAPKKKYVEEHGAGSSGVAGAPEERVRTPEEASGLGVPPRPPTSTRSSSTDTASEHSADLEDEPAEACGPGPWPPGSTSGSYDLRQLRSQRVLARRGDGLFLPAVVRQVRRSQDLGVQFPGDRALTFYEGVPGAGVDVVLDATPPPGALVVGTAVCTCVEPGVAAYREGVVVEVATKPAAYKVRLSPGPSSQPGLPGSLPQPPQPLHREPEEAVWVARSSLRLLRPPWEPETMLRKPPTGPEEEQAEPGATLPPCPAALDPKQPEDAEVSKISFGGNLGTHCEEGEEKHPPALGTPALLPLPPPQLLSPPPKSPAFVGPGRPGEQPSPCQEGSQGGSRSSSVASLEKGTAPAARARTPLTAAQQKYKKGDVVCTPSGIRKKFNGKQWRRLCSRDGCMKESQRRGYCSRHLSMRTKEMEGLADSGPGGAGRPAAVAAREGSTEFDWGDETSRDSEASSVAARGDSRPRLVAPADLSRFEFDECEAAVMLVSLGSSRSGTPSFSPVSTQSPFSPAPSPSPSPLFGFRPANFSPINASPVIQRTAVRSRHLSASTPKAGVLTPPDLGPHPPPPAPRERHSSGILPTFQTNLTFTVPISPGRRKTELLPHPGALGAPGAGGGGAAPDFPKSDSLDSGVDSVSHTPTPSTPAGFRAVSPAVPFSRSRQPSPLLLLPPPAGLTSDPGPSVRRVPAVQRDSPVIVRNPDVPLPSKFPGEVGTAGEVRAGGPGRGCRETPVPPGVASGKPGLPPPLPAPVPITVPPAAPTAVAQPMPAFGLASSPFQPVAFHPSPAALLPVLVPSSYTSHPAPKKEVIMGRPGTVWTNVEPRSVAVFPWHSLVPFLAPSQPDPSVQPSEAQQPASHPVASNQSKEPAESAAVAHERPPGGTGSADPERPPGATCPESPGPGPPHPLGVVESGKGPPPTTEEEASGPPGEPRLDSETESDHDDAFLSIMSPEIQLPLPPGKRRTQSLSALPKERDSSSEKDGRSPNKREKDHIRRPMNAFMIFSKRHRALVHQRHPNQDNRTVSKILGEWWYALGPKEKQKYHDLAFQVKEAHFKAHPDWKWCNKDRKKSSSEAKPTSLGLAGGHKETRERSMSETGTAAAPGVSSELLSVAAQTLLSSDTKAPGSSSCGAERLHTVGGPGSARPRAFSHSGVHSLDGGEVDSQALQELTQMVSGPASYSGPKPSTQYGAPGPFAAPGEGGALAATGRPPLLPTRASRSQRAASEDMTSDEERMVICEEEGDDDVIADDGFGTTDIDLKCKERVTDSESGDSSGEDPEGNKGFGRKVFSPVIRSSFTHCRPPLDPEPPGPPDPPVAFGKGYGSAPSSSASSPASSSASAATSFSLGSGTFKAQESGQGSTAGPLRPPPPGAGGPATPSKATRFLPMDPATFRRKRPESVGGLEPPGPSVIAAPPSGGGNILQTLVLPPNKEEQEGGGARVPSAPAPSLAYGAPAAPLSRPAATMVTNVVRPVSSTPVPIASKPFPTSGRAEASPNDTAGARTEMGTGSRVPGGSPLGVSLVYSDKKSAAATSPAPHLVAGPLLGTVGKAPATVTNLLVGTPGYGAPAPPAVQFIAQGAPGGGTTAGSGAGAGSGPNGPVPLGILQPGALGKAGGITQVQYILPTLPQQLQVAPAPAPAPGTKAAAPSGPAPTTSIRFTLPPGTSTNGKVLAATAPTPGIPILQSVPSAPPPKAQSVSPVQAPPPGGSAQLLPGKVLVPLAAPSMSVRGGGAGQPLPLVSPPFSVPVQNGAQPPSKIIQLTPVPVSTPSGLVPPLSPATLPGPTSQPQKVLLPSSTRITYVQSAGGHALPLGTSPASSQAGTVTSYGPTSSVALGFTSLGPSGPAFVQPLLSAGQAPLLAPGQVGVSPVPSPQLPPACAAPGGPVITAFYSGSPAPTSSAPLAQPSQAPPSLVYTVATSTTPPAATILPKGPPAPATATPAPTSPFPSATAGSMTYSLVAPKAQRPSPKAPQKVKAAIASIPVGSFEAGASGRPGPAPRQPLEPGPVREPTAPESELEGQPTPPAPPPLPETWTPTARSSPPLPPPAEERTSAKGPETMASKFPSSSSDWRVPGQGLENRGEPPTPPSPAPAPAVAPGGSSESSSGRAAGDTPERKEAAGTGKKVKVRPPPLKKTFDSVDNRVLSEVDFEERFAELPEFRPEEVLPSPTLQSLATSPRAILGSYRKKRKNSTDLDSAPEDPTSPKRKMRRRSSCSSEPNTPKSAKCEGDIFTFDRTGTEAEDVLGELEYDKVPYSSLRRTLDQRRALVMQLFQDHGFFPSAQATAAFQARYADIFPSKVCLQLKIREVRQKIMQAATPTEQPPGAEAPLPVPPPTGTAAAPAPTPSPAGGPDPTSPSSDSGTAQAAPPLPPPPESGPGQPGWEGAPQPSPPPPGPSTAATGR

ratio to parent (VN-Impα2; n = 155 (85Q) and 172 (K772T) nuclei): 0.55
Substance: VC-ataxin-1[85Q] (from UniProt P54253) K772T

ratio to parent (VN-CIC): 0.47 | ratio to parent (VN-Impα2; n = 101 and 101 nuclei): 0.72
Substance: VC-ataxin-1[85Q] (from UniProt P54253) V591A; S602D

Substance: VN-Impα2 (from UniProt P52293) D192K; E396R
ratio to parent (VC-ataxin-1[85Q]): 0.75
